Laboratory results taken from patent US11389485.

Key:
[1] = target: CD33 variant having the fragment encoded by exon 2 deleted (CD33ex2) (human) (UniProt P20138); test: cell-based or functional assay
[2] = target: human CD33, full-length (CD33M) (human) (UniProt P20138); test: cell-based or functional assay

B1: gemtuzumab ozogamicin (antibody, INN chains, looked up, V domains shown)
VH: EVQLVQSGAEVKKPGSSVKVSCKASGYTITDSNIHWVRQAPGQSLEWIGYIYPYNGGTDYNQKFKNRATLTVDNPTNTAYMELSSLRSEDTAFYYCVNGNPWLAYWGQGTLVTVSS
VL: DIQLTQSPSTLSASVGDRVTITCRASESLDNYGIRFLTWFQQKPGKAPKLLMYAASNQGSGVPSRFSGSGSGTEFTLTISSLQPDDFATYYCQQTKEVPWSFGQGTKVEVKR
modifications: ozogamicin (calicheamicin) conjugate
IC50 of GO cytotoxicity, HSPC CD33ex2 [1]: 0.246 µg/mL | IC50 of GO cytotoxicity (viable cell number, Celltiter Glo, 72 h), HL-60 cells [2]: 0.0355 µg/mL | IC50 of GO cytotoxicity (viable cell number, Celltiter Glo, 72 h), THP-1 cells [2]: 0.0163 µg/mL | IC50 of GO cytotoxicity, wild-type HSPC [2]: 0.0934 µg/mL
